Reference: US20220073608A1 (JIANGSU HUAIYU PHARMACEUTICAL, published 2022)

T1: mouse SEMA4D, full length, on CHO-K1 cells (CHO-K1 mSEMA4D) (mouse, UniProt O09126 24-861)
T1 construct: whole, on cells; also called murine SEMA4D recombinant cells
T1 sequence (looked up): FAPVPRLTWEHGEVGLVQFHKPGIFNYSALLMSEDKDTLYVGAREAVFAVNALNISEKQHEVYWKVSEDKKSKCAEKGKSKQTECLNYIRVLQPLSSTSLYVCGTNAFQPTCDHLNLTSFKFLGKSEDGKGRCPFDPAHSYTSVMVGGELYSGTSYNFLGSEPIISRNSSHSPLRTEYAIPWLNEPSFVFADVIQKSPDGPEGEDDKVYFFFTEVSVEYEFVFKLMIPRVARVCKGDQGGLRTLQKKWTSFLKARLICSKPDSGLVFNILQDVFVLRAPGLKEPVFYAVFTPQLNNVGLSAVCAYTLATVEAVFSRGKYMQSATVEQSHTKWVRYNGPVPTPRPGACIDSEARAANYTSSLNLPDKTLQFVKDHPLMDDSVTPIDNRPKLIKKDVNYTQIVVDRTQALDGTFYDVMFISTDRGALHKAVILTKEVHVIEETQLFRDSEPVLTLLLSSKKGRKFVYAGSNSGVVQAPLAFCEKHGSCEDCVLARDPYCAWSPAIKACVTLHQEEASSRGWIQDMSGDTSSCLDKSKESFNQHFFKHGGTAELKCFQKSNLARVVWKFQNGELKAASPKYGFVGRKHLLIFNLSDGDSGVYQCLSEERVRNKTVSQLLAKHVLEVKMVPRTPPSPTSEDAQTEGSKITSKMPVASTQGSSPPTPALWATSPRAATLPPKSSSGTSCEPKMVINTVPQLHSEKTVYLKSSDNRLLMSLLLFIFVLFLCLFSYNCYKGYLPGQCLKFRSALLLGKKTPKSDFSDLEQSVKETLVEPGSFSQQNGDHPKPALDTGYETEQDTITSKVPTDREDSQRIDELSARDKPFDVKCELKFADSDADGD

T2: human SEMA4D, full length, on CHO-K1 cells (CHO-K1 hSEMA4D) (human, UniProt Q92854 22-862)
T2 construct: whole, on cells; also called human SEMA4D recombinant cells
T2 sequence (looked up): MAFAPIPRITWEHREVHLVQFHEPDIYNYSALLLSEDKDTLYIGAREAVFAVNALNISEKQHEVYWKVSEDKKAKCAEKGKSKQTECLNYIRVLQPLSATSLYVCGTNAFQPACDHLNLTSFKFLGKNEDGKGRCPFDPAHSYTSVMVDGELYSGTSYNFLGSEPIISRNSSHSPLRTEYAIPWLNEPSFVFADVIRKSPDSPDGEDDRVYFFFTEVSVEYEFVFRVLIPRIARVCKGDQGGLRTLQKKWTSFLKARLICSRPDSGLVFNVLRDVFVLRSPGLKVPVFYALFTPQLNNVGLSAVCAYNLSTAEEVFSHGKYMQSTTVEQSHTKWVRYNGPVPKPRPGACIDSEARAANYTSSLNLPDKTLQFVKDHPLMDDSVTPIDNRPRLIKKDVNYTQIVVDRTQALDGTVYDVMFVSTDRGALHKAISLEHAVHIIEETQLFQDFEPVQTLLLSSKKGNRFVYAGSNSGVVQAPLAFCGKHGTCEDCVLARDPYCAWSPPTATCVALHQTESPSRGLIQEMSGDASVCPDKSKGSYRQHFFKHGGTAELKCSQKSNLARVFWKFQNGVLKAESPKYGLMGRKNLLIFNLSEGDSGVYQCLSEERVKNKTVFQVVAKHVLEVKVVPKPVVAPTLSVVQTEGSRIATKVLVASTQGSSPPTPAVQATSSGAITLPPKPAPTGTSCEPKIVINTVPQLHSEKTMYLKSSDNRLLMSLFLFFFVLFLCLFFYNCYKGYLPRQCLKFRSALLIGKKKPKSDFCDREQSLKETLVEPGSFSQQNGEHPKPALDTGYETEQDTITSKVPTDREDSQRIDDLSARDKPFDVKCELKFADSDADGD


Assays:
[1] = target: T1, mouse SEMA4D, full length, on CHO-K1 …; experiment: FACS, CHO-K1 mSEMA4D cells; Ab 0.000853 nM
Procedure: (§1) After the cells were counted, they were diluted with PBS to 2×10⁶ cells per milliliter. After washing, 100 μL of diluted and purified leading antibodies was added to each well and the plate was incubated for 1 hour on ice. […] Cells were washed 2 times by centrifugation with FACS buffer. The cells were suspended with 200 μL of FACS buffer, FACS (FACS Verse, purchased from BD) was used to detect and analyze the results.

[2] = target: T3, monkey SEMA4D, full length, on CHO-K1 cells (CHO-K1 cSEMA4D) (monkey); experiment: FACS, CHO-K1 cSEMA4D cells; Ab 13.3 nM
T3 construct: whole, on cells; also called monkey SEMA4D recombinant cells
Procedure: as §1

[3] = target: T1, mouse SEMA4D, full length, on CHO-K1 …; experiment: FACS, CHO-K1 mSEMA4D cells; Ab 0.107 nM
Procedure: as §1

[4] = target: T3, monkey SEMA4D, full length, on CHO-K1 …; experiment: FACS, CHO-K1 cSEMA4D cells; Ab 0.000853 nM
Procedure: as §1

[5] = target: T2, human SEMA4D, full length, on CHO-K1 …; experiment: competitive FACS, CHO-K1 hSEMA4D cells; unlabelled Ab 6 ug/mL first, competitor Alexa 488-VX15 0.67 ug/mL
Excerpt: The purified hybridoma SEMA4D antibodies and fully human SEMA4D antibody were subjected to competitive flow cytometry (FACS) to analyze whether the epitopes bound by different antibodies competed with that bound by the reference antibody VX15.
The medium was aspirated, the cells were washed once with PBS buffer (purchased from Invitrogen), and then treated with cell dissociation fluid (TrypLE™ Express Enzyme, purchased from Life technology), and the cells were collected. After the cells counted, the cells were washed once with PBS phosphate buffer, and diluted to 3×10⁶ cells per milliliter, and added to the 96-well FACS reaction plate as 100 μL per well. 2% (w/w) fetal calf serum was added to PBS phosphate buffer as FACS buffer, with which the cells were washed once by centrifugation at 2000 rpm 4° C. 100 μL of the leading antibodies and IgG control diluted to a concentration of 6 μg/mL was added to each well and the plate was incubated for 1 hour on ice. […] Cells were washed 2 times by centrifugation with FACS buffer. The cells were suspended with 200 μL of FACS buffer, and FACS (FACS Verse, purchased from BD) was used to detect and analyze the results.

[6] = target: T3, monkey SEMA4D, full length, on CHO-K1 …; experiment: FACS, CHO-K1 cSEMA4D cells; Ab 0.107 nM
Procedure: as §1

Row | Binder | MFI [1] | MFI [2] | MFI [3] | MFI [4] | inhibition rate (%) [5] [%] | MFI [6]
1 | 32C8F10 (antibody, V domains shown, Mouse monoclonal antibody purified from hybridoma supernatant on protein A) VH: EVQLQQSGAELVRPGASVKLSCTASGFNIKDEYIHWVKQRPEQGLEWIGWIDPANGHTEYASRFQAKATITADTSSNTAYLQLSSLTSEDTAVYYCTTGDYDGFAYWGQGTLVTVST VL: QIVLTQSPAIMSASPGEKVTISCSARSSVSYMYWYQQKPGSSPKPWIYRTSNLASGVPARFSGSGSGTSYSLTISSMEAEDAATYYCQHYHTYPYTFGGGTKLEIK | 30.4 | 5590 | 30.2 | 49.7 | 42 | 1010
2 | 31C11G2 (antibody, V domains shown, Mouse monoclonal antibody purified from hybridoma supernatant on protein A) VH: EVQLQQSGAELVRPGASVKLSCTASGFNIKDEYIHWVKQRPEQGLEWIGWIDPANGHTEYASRFQAKATITADTSSNTAYLQLSSLTSEDTAVYYCTTGDYDGFVYWGQGTLVTVST VL: QIVLTQSPAIMSASPGEKVTIFCSARSSVSYMYWYQQKPGSSPKPWIYRTSNLASGVPARFSGSGSGTSYSLTISSMEAEDAATYYCQHYHTYPYTFGGGTKLEIK | 30.9 | 4390 | 30.6 | 81.4 | 44 | 1210
3 | 31G10C5 (antibody, V domains shown, Mouse monoclonal antibody purified from hybridoma supernatant on protein A) VH: EVQLQQSGAELVRPGASVKLSCTASGFNIKDDYIHWVKQRPEQGLEWIGWIDPANGHIEYASNFQAKATITADTSSNTAYLQLSSLTSEDTAVYYCTTGDYDGFTYWGQGTLVTVST VL: QIVLTQSPAIMSASPGEKVTISCSARSSVSYMYWYQQKPGSSPKPWIYRTSNLASGVPARFSGSGSGTSYSLTISSMEAEDAATYYCQHYHTYPYTFGGGTKLEIK | 30.1 | 4580 | 29.6 | 61.5 | 42 | 1310
4 | 37C4F7 (antibody, V domains shown, Mouse monoclonal antibody purified from hybridoma supernatant on protein A) VH: EFQLQQSGPEVVKPGASVKISCKASGYSFTDYNMNWMKQSKGKSLEWIGVINPNYGTTTYNQNFKGKATLTVDQSSSTAYMQLNSLTSEDSAVYYCARDMYYVYAYYTMDYWGQGTSVTVSS VL: DVVMTQTPLSLPVSLGDQASISCRSSQSLVHSNGHTYLHWYLQRPGQSPTLLIYKVSNRFSGVPDRFSGSGSGTDFTLKISRVEAEDLGVYFCSQGTHVPWTFGGGTKLEIK | 30.2 | 2790 | 30.1 | 29 | 20 | 237
5 | 38H2E3 (antibody, V domains shown, Mouse monoclonal antibody purified from hybridoma supernatant on protein A) VH: EFQLQQSGPEVVKPGASVKISCKASGYSFTDYNMNWMKQSKGKSLEWIGVISPDYGTTTYNQNFKDKATLTVDQSSSTAYMQLNSLTSEDSAVYYCAKDMYYVYAYYTMDYWGHGTSVTVSS VL: DVVMTQTPLSLPVSLGDQASISCRSSQSLVHSNGHTYLHWYLQRPGQSPTLLIYKVSNRFSGVPDRVSGSGSGTDFTLKISRVEAEDLGVYFCSQGTHVPRTFGGGTKLEIK | 30.1 | 2800 | 30.5 | 26.1 | 21 | 210
6 | 37F11F9 (antibody, V domains shown, Mouse monoclonal antibody purified from hybridoma supernatant on protein A) VH: EVQLQQSGPVLVKPGASVKMSCKASGYTFTDYYMNWVKQSHGKSLEWIGLINPYSGGSTFNQKFKAKATLTVDKSSSSAYMDLNSLTSEDSAVYYCARVGDGYYGVTHGMDYWGQGTSVTVSS VL: DIVMTPSQKFMSTTVGDRVSITCKASQNVGTAVAWYQQKPGQSPTILIYSASNRYTGVPDRFTGSGSGTDFTLTISNMKSEDLADYFCQQYYIYPFTFAAGTKLELK | 29.7 | 2480 | 29.7 | 29.5 | 25 | 300
7 | 42B7G2 (antibody, V domains shown, Mouse monoclonal antibody purified from hybridoma supernatant on protein A) VH: QVQLQQSGAELARPGASVKLSCKASGYTFTDYGISWVKQRTGQGLEWIGEIYLRNDNSYYNEKFKGKATLTADKSSNTAYMELRSLTSEDSAVYFCARWGDHGNNYEDAMDYWGQGTSVTVSS VL: DIVLTQSPASLAMSLGKRATISCRASESVSIIGSNLIHWYQQKPGQPPKLLIYHASNLETGVPARFSGSGSRTDFTLTIDPVEEDDVAIYYCLQSRKVPYTFGGGTKLEIK | 31.1 | 2590 | 30.4 | 54.5 | 15 | 793
